Test results taken from patent US20190352352A1.
Several values for one entry are separate records, joined by “and”; a condition that tells them apart may be missing. Identical values can stand only once.

Experiments:
[1] = target: chymotryptic hydrolysate of WPI (chymotryptic-WPIH); assay: β-lactoglobulin-specific competitive ELISA kit
[2] = target: tryptic hydrolysate of WPI (tryptic-WPIH); assay: β-lactoglobulin-specific competitive ELISA kit
[3] = target: TG polymers of thermolysin WPI hydrolysate (thermolysin-WPIH-TG); assay: β-lactoglobulin-specific competitive ELISA kit
[4] = target: repolymerized tryptic WPI hydrolysate (tryptic-WPIH-TG); assay: β-lactoglobulin-specific competitive ELISA kit
[5] = target: TGase-polymerized native WPI (WPI-TG); assay: β-lactoglobulin-specific competitive ELISA kit
[6] = target: thermolysin hydrolysate of WPI (thermolysin-WPIH); assay: β-lactoglobulin-specific competitive ELISA kit
[7] = target: TG polymers of chymotryptic WPI hydrolysate (chymotryptic-WPIH-TG); assay: β-lactoglobulin-specific competitive ELISA kit
[8] = target: native WPI digests (peptides released during simulated gastric and duodenal digestion of native WPI); assay: β-lactoglobulin-specific competitive ELISA kit, time course of in vitro digestion
[9] = target: thermolysin-WPIH-TG polymer digest (peptides released during simulated gastric and duodenal digestion); assay: as above
[10] = target: TGase-polymerized intact casein (CN-TG); assay: casein-specific ELISA kit

Substance	immunoreactivity (% of native WPI control) (% of native WPI control) [1]	immunoreactivity (% of native WPI control) (% of native WPI control) [2]	immunoreactivity (% of native WPI control) (% of native WPI control) [3]	immunoreactivity (% of native WPI control) (% of native WPI control) [4]	immunoreactivity (% of native WPI control) (% of native WPI control) [5]	immunoreactivity (% of native WPI control) (% of native WPI control) [6]	immunoreactivity (% of native WPI control) (% of native WPI control) [7]	immunoreactivity (%) [8] [%]	immunoreactivity (%) [9]	immunoreactivity (% of casein control) (% of casein control) [10]
antibody of the … β-lactoglobulin test kit (β-lactoglobulin-specific competitive ELISA kit, R-Biopharm AG)	83	29	6	29 to 31	78	18	44	5 to 20	5% and < 5%	–
antibody of the AgraQuant F.A.S.T Casein ELISA test kit (Romer Labs Inc.)	–	–	–	–	–	–	–	–	–	70
